This passage reports RA (relative affinity) and relative avidity results from patent publication US20090175892A1.

Where only a bound is given, the exact number is not on record here.

Test [1] addresses T1, HLA-B*0702 molecule on HLA-B*0702 transfected TAP deficient T2 cells (T2-B7) (human). Kind of test: MHC stabilization assay on T2-B7 cells, ME-1 staining; ratio of concentration inducing 20% of HLA-B*0702 expression against reference peptide CMV265-274. The following applies: remark: other sources report otherwise.
In test [2] the target is T1, HLA-B*0702 molecule on HLA-B*0702 …. Kind of test: MHC stabilization assay on T2-B7 cells, flow cytometry with ME.1; ratio of concentration giving 20% of maximal binding against reference peptide R10TV. Particulars: remark: other sources report otherwise. Background: Flow cytometry measures light scatter and fluorescence of single cells or particles in a stream.

On to DPRRLVQLL [hTERT peptide p444 (…, residues 444-452)], for which the RA (relative affinity) in test [1] was over 10.
Consider RPAEEATSL [hTERT peptide p277 (…, residues 277-285)], for which the relative avidity in test [2] came out at 4.7.
